Test results from paper PMC7062800.

How the values were obtained:
[1] = test system: RdhK1 (CprK4) (Desulfitobacterium hafniense DCB-2); test: EMSA; conditions: no effector; EMSA: 100 ng DNA, 2 uM protein, 200 uM effector, 15 uL; buffer 100 mM Tris-HCl pH 8.5, 40% glycerol, 10 mM MgCl2, 500 mM NaCl, 5 mM EDTA, 10 mM DTT …
[2] = biological target: RdhK6 (CprK1) (Desulfitobacterium hafniense DCB-2) (UniProt Q18R04); test: EMSA; conditions: 200 uM Cl-OHPA; EMSA: 100 ng DNA, 2 uM protein, 200 uM effector, 15 uL; buffer 100 mM Tris-HCl pH 8.5, 40% glycerol, 10 mM MgCl2, 500 mM NaCl, 5 mM EDTA, 10 mM DTT …

GAATTCTCAGGCGATGTAACCGCTTTCAAATTTAGTATACGCTAAATATCTTAACAATGTGATAGCTATGATTGCACCG (double strand) [mgl-DB8]
binding signal [1]: 80 % DNA bound
binding signal [2]: 100 % DNA bound

GAATTCTCAGGCGATGTAACCGCTTTCAAAGTTAATACACATTAATACTCTTAACAATGTGATAGCTATGATTGCACCG (double strand) [mgl-DB7]
binding signal [1]: 10 % DNA bound
binding signal [2]: 100 % DNA bound
